# Results reported in patent publication US20100263089A1, “USE OF P[…] FROM A PA1B LEGUME ALBUMEN AS INSECTICIDE” (Institut National de la Recherche Agronomique, priority 1998, published 2010).
# How the values were obtained:
# [1] = Stability of the entomotoxic activity (storage in dry seeds, heating)
# Experimental: In addition, this activity is not affected by heating to 100° C.
# [2] = tested on: humans or higher animals; conditions: present in legumes of the conventional diet; no test described; cited from earlier work
substance,measurement,setting,value
PAlb protein: pea albumin PA1b (SEQ ID NO: 7) described by HIGGINS et al. (ASCNGVCSPFEMPPCGTSACRCIPVGLVVGYCRNPSG),entomotoxic/insecticidal activity after storage,[1]; dry seeds stored for several years,conserves its insecticidal activity
same,entomotoxic/insecticidal activity after heating,[1]; heating to 100° C.,not affected
same,toxicity for humans or higher animals,[2],not toxic
